Assay results as given in US20250188176A1 (INVETX, published 2025).

T1: Extracellular domain (ECD) of the canine IL-4 receptor alpha-V5 epitope-AviTag-His Tag (canine)
T1 construct: monomeric form isolated by size exclusion; also called canine IL-4RA-V5-Avi-His; canine IL-4RA
T1 chain: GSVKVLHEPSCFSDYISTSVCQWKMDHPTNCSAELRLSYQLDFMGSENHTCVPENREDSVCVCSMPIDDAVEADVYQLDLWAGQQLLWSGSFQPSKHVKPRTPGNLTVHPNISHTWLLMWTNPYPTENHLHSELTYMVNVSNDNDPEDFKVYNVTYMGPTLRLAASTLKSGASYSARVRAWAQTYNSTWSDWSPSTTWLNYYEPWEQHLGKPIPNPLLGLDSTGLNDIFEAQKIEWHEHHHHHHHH


Target: T1, Extracellular domain (ECD) of the …
Test: SPR, Fab-SASA captured on BSA;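 also: biacore T200 SPR, Fab-SASA variants from E. coli conditioned medium captured on BSA-coated CM5 chip, canine IL-4RA injected 120 s then 420 s dissociation, 1:1 model fit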

Binder | Kd [nM] | Ratio WT-kd/clone-kd | koff [s⁻¹] | kon [M⁻¹ s⁻¹]
TB640_005 Fab-SASA VH-K103I (Fab, V domains shown, not shown: SASA tag then His-tag) VH: EVQLVESGGDLVKPGGSLRLSCVASGFTFRDYAMTWVRQAPGKGLQWVSLISGSGGKTYYADAVKGRFTISRDNAKNTLYLQMNSLRAEDTAVYYCAVDRLTITIRPQYYGLWVWGQGTLVTVSS VL: DIVMTQTPLSLSVSPGETASISCRSSQSLLYSIGYNYLDWYLQKPGQSPQGLIYLGSKRASGVPDRFSGSGSGTDFTLRISRVEANDTGVYYCMQGLQSPLTFGQGTKLEIKR | 18.6 | 0.99 | 0.000967 | 51900
TB640_005 Fab-SASA VH-S52N (Fab, V domains shown, not shown: SASA tag then His-tag) VH: EVQLVESGGDLVKPGGSLRLSCVASGFTFRDYAMTWVRQAPGKGLQWVSLINGSGGKTYYADAVKGRFTISRDNAKNTLYLQMNSLRAEDTAVYYCAVDRLTKTIRPQYYGLWVWGQGTLVTVSS VL: DIVMTQTPLSLSVSPGETASISCRSSQSLLYSIGYNYLDWYLQKPGQSPQGLIYLGSKRASGVPDRFSGSGSGTDFTLRISRVEANDTGVYYCMQGLQSPLTFGQGTKLEIKR | 1.83 | 7.88 | 0.000112 | 66200
TB640_005 Fab-SASA VH-L50F (Fab, V domains shown, not shown: SASA tag then His-tag) VH: EVQLVESGGDLVKPGGSLRLSCVASGFTFRDYAMTWVRQAPGKGLQWVSFISGSGGKTYYADAVKGRFTISRDNAKNTLYLQMNSLRAEDTAVYYCAVDRLTKTIRPQYYGLWVWGQGTLVTVSS VL: DIVMTQTPLSLSVSPGETASISCRSSQSLLYSIGYNYLDWYLQKPGQSPQGLIYLGSKRASGVPDRFSGSGSGTDFTLRISRVEANDTGVYYCMQGLQSPLTFGQGTKLEIKR | 15 | 0.49 | 0.00193 | 128000
TB640_005 Fab-SASA VH-T28P (Fab, V domains shown, not shown: SASA tag then His-tag) VH: EVQLVESGGDLVKPGGSLRLSCVASGFPFRDYAMTWVRQAPGKGLQWVSLISGSGGKTYYADAVKGRFTISRDNAKNTLYLQMNSLRAEDTAVYYCAVDRLTKTIRPQYYGLWVWGQGTLVTVSS VL: DIVMTQTPLSLSVSPGETASISCRSSQSLLYSIGYNYLDWYLQKPGQSPQGLIYLGSKRASGVPDRFSGSGSGTDFTLRISRVEANDTGVYYCMQGLQSPLTFGQGTKLEIKR | 8.95 | 1.21 | 0.000786 | 87800
TB640_005 Fab-SASA VH-V114K (Fab, V domains shown, not shown: SASA tag then His-tag) VH: EVQLVESGGDLVKPGGSLRLSCVASGFTFRDYAMTWVRQAPGKGLQWVSLISGSGGKTYYADAVKGRFTISRDNAKNTLYLQMNSLRAEDTAVYYCAVDRLTKTIRPQYYGLWKWGQGTLVTVSS VL: DIVMTQTPLSLSVSPGETASISCRSSQSLLYSIGYNYLDWYLQKPGQSPQGLIYLGSKRASGVPDRFSGSGSGTDFTLRISRVEANDTGVYYCMQGLQSPLTFGQGTKLEIKR | 5.97 | 1.33 | 0.000717 | 120000
TB640_005 Fab-SASA VH-L112M (Fab, V domains shown, not shown: SASA tag then His-tag) VH: EVQLVESGGDLVKPGGSLRLSCVASGFTFRDYAMTWVRQAPGKGLQWVSLISGSGGKTYYADAVKGRFTISRDNAKNTLYLQMNSLRAEDTAVYYCAVDRLTKTIRPQYYGMWVWGQGTLVTVSS VL: DIVMTQTPLSLSVSPGETASISCRSSQSLLYSIGYNYLDWYLQKPGQSPQGLIYLGSKRASGVPDRFSGSGSGTDFTLRISRVEANDTGVYYCMQGLQSPLTFGQGTKLEIKR | 13.7 | 1.97 | 0.000483 | 35300
TB640_005 Fab-SASA VH-V114G (Fab, V domains shown, not shown: SASA tag then His-tag) VH: EVQLVESGGDLVKPGGSLRLSCVASGFTFRDYAMTWVRQAPGKGLQWVSLISGSGGKTYYADAVKGRFTISRDNAKNTLYLQMNSLRAEDTAVYYCAVDRLTKTIRPQYYGLWGWGQGTLVTVSS VL: DIVMTQTPLSLSVSPGETASISCRSSQSLLYSIGYNYLDWYLQKPGQSPQGLIYLGSKRASGVPDRFSGSGSGTDFTLRISRVEANDTGVYYCMQGLQSPLTFGQGTKLEIKR | 3.5 | 1.47 | 0.000647 | 185000
TB640_005 Fab-SASA VH-L50M (Fab, V domains shown, not shown: SASA tag then His-tag) VH: EVQLVESGGDLVKPGGSLRLSCVASGFTFRDYAMTWVRQAPGKGLQWVSMISGSGGKTYYADAVKGRFTISRDNAKNTLYLQMNSLRAEDTAVYYCAVDRLTKTIRPQYYGLWVWGQGTLVTVSS VL: DIVMTQTPLSLSVSPGETASISCRSSQSLLYSIGYNYLDWYLQKPGQSPQGLIYLGSKRASGVPDRFSGSGSGTDFTLRISRVEANDTGVYYCMQGLQSPLTFGQGTKLEIKR | 8.5 | 0.79 | 0.0012 | 141000
TB640_005 Fab-SASA VH-L101K (Fab, V domains shown, not shown: SASA tag then His-tag) VH: EVQLVESGGDLVKPGGSLRLSCVASGFTFRDYAMTWVRQAPGKGLQWVSLISGSGGKTYYADAVKGRFTISRDNAKNTLYLQMNSLRAEDTAVYYCAVDRKTKTIRPQYYGLWVWGQGTLVTVSS VL: DIVMTQTPLSLSVSPGETASISCRSSQSLLYSIGYNYLDWYLQKPGQSPQGLIYLGSKRASGVPDRFSGSGSGTDFTLRISRVEANDTGVYYCMQGLQSPLTFGQGTKLEIKR | 7.1 | 1.53 | 0.000623 | 87800
TB640_005 Fab-SASA VH-V114H (Fab, V domains shown, not shown: SASA tag then His-tag) VH: EVQLVESGGDLVKPGGSLRLSCVASGFTFRDYAMTWVRQAPGKGLQWVSLISGSGGKTYYADAVKGRFTISRDNAKNTLYLQMNSLRAEDTAVYYCAVDRLTKTIRPQYYGLWHWGQGTLVTVSS VL: DIVMTQTPLSLSVSPGETASISCRSSQSLLYSIGYNYLDWYLQKPGQSPQGLIYLGSKRASGVPDRFSGSGSGTDFTLRISRVEANDTGVYYCMQGLQSPLTFGQGTKLEIKR | 5.47 | 1.62 | 0.000589 | 108000
TB640_005 Fab-SASA VH-L101M (Fab, V domains shown, not shown: SASA tag then His-tag) VH: EVQLVESGGDLVKPGGSLRLSCVASGFTFRDYAMTWVRQAPGKGLQWVSLISGSGGKTYYADAVKGRFTISRDNAKNTLYLQMNSLRAEDTAVYYCAVDRMTKTIRPQYYGLWVWGQGTLVTVSS VL: DIVMTQTPLSLSVSPGETASISCRSSQSLLYSIGYNYLDWYLQKPGQSPQGLIYLGSKRASGVPDRFSGSGSGTDFTLRISRVEANDTGVYYCMQGLQSPLTFGQGTKLEIKR | 7.73 | 1.34 | 0.000713 | 92300
TB640_005 Fab-SASA VH-K103R (Fab, V domains shown, not shown: SASA tag then His-tag) VH: EVQLVESGGDLVKPGGSLRLSCVASGFTFRDYAMTWVRQAPGKGLQWVSLISGSGGKTYYADAVKGRFTISRDNAKNTLYLQMNSLRAEDTAVYYCAVDRLTRTIRPQYYGLWVWGQGTLVTVSS VL: DIVMTQTPLSLSVSPGETASISCRSSQSLLYSIGYNYLDWYLQKPGQSPQGLIYLGSKRASGVPDRFSGSGSGTDFTLRISRVEANDTGVYYCMQGLQSPLTFGQGTKLEIKR | 7.13 | 1.5 | 0.000636 | 89200
TB640_005 Fab-SASA VH-T28N (Fab, V domains shown, not shown: SASA tag then His-tag) VH: EVQLVESGGDLVKPGGSLRLSCVASGFNFRDYAMTWVRQAPGKGLQWVSLISGSGGKTYYADAVKGRFTISRDNAKNTLYLQMNSLRAEDTAVYYCAVDRLTKTIRPQYYGLWVWGQGTLVTVSS VL: DIVMTQTPLSLSVSPGETASISCRSSQSLLYSIGYNYLDWYLQKPGQSPQGLIYLGSKRASGVPDRFSGSGSGTDFTLRISRVEANDTGVYYCMQGLQSPLTFGQGTKLEIKR | 11.3 | 1.22 | 0.00078 | 69200
